± gives the uncertainty stated by the source.
Assay: amyloid nucleation score (Sup35N fusion, yeast selection) (log enrichment); library NNK1; higher = more nucleation; inactive = no reads after selection
Outline: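 Nucleation score: DiMSum log enrichment of output over input reads, centred on the mode score of non-aggregating sequences. Only sequences with at least 100 input reads were kept. Reads came from Illumina sequencing of plasmid inserts before and after 7 days of growth at 30°C without adenine and uracil, in psi-negative yeast expressing Sup35N fused to peptides of 20 random codons after 24 hours of induction with 100 μM copper sulfate.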

Row | Substance | amyloid nucleation score
1 | GIRMRGVSDLSLLRM | 0.163 ± 0.77
2 | DFVLIIFFCPCRYCSSTHTT | 3.32 ± 0.2
3 | YFRSSGGAFFGNLDVCGNYV | 0.124 ± 0.48
4 | SCNVFGASWRLTVNDVWYKW | 0.651 ± 0.22
5 | HQVVRSFGELHLLWCRLDEG | 0.204 ± 0.45
6 | NSGNICSVGCGL | 3.09 ± 0.2
7 | FHNRINKPTK | inactive
8 | CTFILVLHLLHINTDHIMSA | -0.176 ± 1.1
9 | KTLFMITYFGL | 0.85 ± 0.26
10 | MYETWFTFRWKLTDI | -0.007 ± 0.39
11 | SNSNTIP | -0.676 ± 0.98
12 | YHSKLFVGGYWLYREDGREY | 0.812 ± 0.24
13 | VMESTRNFSKVMSCSLFRFR | -0.684 ± 0.62
14 | DYGVMWI | 0.296 ± 0.41
15 | FIVKKFIKSNRLVLMRGSPL | 0.669 ± 0.49
16 | SGCPDPW | -0.047 ± 1.7
17 | VSLRAAWNLC | 0.606 ± 0.71
18 | GWYFPILRDLRNVGGVF | -0.677 ± 1.1
19 | RRYWVIIIEVAGSRSVETPV | -0.823 ± 0.51
20 | SNATVGQPRYNVRTGKAGCE | 0.351 ± 0.48
21 | CNRLIHDMHVCLTNE | inactive
22 | SMSCVVHRGSSASCWMFYRN | 0.784 ± 0.37
23 | TPSMKWFPKLLVLVSSTRHY | -0.51 ± 0.44
24 | RTMEYAPGCLVAFDYK | 0.24 ± 0.44
25 | YTSKSMRGFSKKSLFDMTFK | 0.126 ± 0.79

Row | Substance | amyloid nucleation score
26 | YDFTDFPSPTFRYFVLIGNA | 0.333 ± 0.54
27 | FRDFWLDNVLNMMVGCAARD | -0.692 ± 1.2
28 | THFVLE | 0.53 ± 0.28
29 | TVTGIAKFHVVSQANY | -0.3 ± 0.98
30 | YVVGARNEVRGYRVGTRLIR | 0.155 ± 1.5
31 | LPFMHYYHSGY | -0.814 ± 1.4
32 | FDNAPMSDLG | 0.405 ± 0.72
33 | MTMKLFRQD | -0.049 ± 1.1
34 | SSCKWSSKPAHEFQVMTAPT | -0.007 ± 0.65
35 | GLVFWNIYCRNFYLL | 6.83 ± 0.078
36 | IDSVQFTLQTASHPRSDDDC | -0.143 ± 0.58
37 | RALAVSRMRAYPSLRGEYLN | 0.076 ± 1.2
38 | NSRGVSSKYCFGKRIPDGGL | 0.117 ± 0.3
39 | LREVGQNLVGMSV | inactive
40 | LRIVS | -0.11 ± 0.4
41 | TVGSIQKAEYWIHGYMATVN | 0.169 ± 0.29
42 | WLVLTMS | 0.086 ± 0.36
43 | HAAEGIDESRKHSRHLIIVW | 0.029 ± 0.34
44 | ISPRHNYPQILMVLLIKVYF | -1.33 ± 1.3
45 | EGLLFYEYSSMCVEKDWIKN | -0.136 ± 0.43
46 | SNLLTCPKYFVVTFFCL | 0.211 ± 0.26
47 | FSRISCFP | 0.638 ± 0.61
48 | CNQYWVSQ | 0.322 ± 0.26
49 | GQFSRSCGTVHNQSVYRRCL | 1.5 ± 0.48
50 | AYYGDGFAKGTMLMTS | -0.35 ± 0.32

Row | Substance | amyloid nucleation score
51 | RLLDFMFVGVLLACFGVQRW | 1.39 ± 0.29
52 | RLLSLLINMTVVVWLSRKT | 2.43 ± 0.25
53 | VSQCS | 0.238 ± 0.54
54 | GWYFYG | 0.702 ± 0.32
55 | FVIDACIFC | 9.445 ± 0.071
56 | GCYWIMAMGQILRRLEDAAG | 1.14 ± 0.72
57 | SNNDFLTSPAFGLLTG | 0.066 ± 0.45
58 | LEGSNSFNLRNLQFALRGTL | 0.069 ± 0.45
59 | GWMNCHNSTWRVGQALSSSR | 0.282 ± 0.48
60 | GYSCRVIWNTNWTALFT | inactive
61 | LMWVSRR | 0.13 ± 0.38
62 | LDVTSDFCTMI | 0.5 ± 0.38
63 | VGHSEIKMTMTRLADLGVCE | 0.612 ± 0.62
64 | FRSFKNTY | -1.3 ± 0.45
65 | FASRNISG | -0.054 ± 0.5
66 | WVTVPNTKKTNVLFGQWTIV | -0.379 ± 0.39
67 | LSQMSRCNPACAVVPASEMA | 0.376 ± 1.1
68 | PERTSMGSKFTTDN | -0.382 ± 0.43
69 | CDTFYLLVLALTYWEWANLE | -0.497 ± 0.99
70 | KSCTCRNSSYRYVHINLARY | -0.253 ± 0.6
71 | AGVAPYWVPTSEQDQLRRGT | -0.721 ± 1.9
72 | SDEGLYPYLHLTFKTSTLWK | 0.201 ± 0.66
73 | KNFDHVKDHIVFQVL | -1.27 ± 1
74 | DLNRSALSRDDGNSVILKCG | 0.653 ± 0.68
75 | IWMYP | 1.7 ± 0.65

Row | Substance | amyloid nucleation score
76 | SMYVYDRGTGILLSCGVYFF | 1.82 ± 0.11
77 | QLLAVMWKGHHVYRELCGRL | -0.549 ± 0.46
78 | KISCIISWLYDFIIKLAFFT | -0.931 ± 0.68
79 | VPTSSFGGFVYVGVRVMCS | -0.487 ± 0.8
80 | YSAVWRSMYTQNLWVPTGMG | 1.83 ± 0.27
81 | RSIRSIESNYYLRNVTFISR | 1.09 ± 0.31
82 | WFFVDSVYIRNKFSLEKGSA | 7.494 ± 0.052
83 | IATGMWLYVSLVTPQHSLVN | 0.101 ± 0.49
84 | ISICTMLLFSPVS | -0.894 ± 0.83
85 | YLLCFWILCFTAVGIFTGFN | 0.456 ± 0.25
86 | TLQNNLTFPDCLGLRCGSHV | 5.03 ± 0.085
87 | IAGFEVARPSNSKTFFPSKF | 2.07 ± 0.14
88 | RGRPLLGRMRFSSAGRAAFW | -0.418 ± 1.5
89 | DFVRMSRPHG | 0.563 ± 0.51
90 | LITLAFVVSCVSYSRGSKRW | 1.31 ± 0.23
91 | IRISVAVHVIVMNYMYPYLI | -0.44 ± 1.2
92 | SWLVPR | -0.104 ± 0.25
93 | MDVIFGLMS | 0.729 ± 0.51
94 | IIIYRNYALMEYDVGRV | 0.75 ± 0.76
95 | RRYRVLANISS | 0.66 ± 0.49
96 | VVLPWSFIWRCGVERQ | -0.812 ± 0.42
97 | GYWGPVFSGRCIPVNNK | -0.186 ± 1.5
98 | FNRCMFHFGDEVVKELL | -0.376 ± 0.91
99 | VFHVAKSRRVTHPSILISL | 1.53 ± 0.74
100 | FENFVASFLPNFGITLRKGQ | 0.043 ± 0.24

Row | Substance | amyloid nucleation score
101 | VCWLGIKCVRVISNWLCAQS | -1.04 ± 1.6
102 | TWYHGSRMSLRVTGRILQCG | -0.43 ± 1.1
103 | LTYCDIVLSMMSLDEKSDYD | inactive
104 | ILNGSPKWNGWRTITCSAVS | 0.667 ± 0.44
105 | RSLNPVISFLN | -0.329 ± 0.69
106 | VFAMPYYSCGVLWNRGNW | 0.566 ± 0.48
107 | WRVHSNKRKLGSCLLTGTIF | 0.656 ± 0.5
108 | GGQSS | 2.97 ± 0.16
109 | AYCFNSTGLSRFCSKYLWSN | -0.478 ± 0.45
110 | CRACSHMTKLLIGTFLLLDF | -0.325 ± 0.6
111 | MVDSYWGWCAMK | 1.22 ± 0.61
112 | VHSGTKEKGF | 1.05 ± 0.54
113 | VFLMLEVCLMV | 0.362 ± 0.72
114 | RCVETSFTSGFIVGELLMRM | -0.84 ± 1.3
115 | SMGRLP | -1.05 ± 1.5
116 | LGWDDVVY | 0.314 ± 0.85
117 | GAVIRRWVIGSGALRDSCND | 0.382 ± 1.2
118 | MRLHLGWNYEMHRKNRALSI | -0.312 ± 1.4
119 | YTTVLAYLLTLDVGSSALSG | -0.465 ± 1.2
120 | VPENLVKMSEV | 0.279 ± 0.71
121 | VISINSVLACVYTIVMR | -0.1 ± 0.73
122 | EGVNYIMKDVLLVDTKVAEN | -0.175 ± 0.66
123 | MRMISFKTVGALFVYCLSLG | 0.313 ± 0.49
124 | PYLNY | -0.153 ± 0.43
125 | TLVLYVKRCWESGLISNECF | -0.699 ± 1.5

Row | Substance | amyloid nucleation score
126 | VFGHIGIDRGI | 2.74 ± 0.22
127 | HCPCGCYTPFLAKRMSSVLV | 0.362 ± 0.26
128 | VFRFRGCF | 1.62 ± 0.38
129 | CIYIWCGVFGSYFGFLVLAA | 0.18 ± 0.49
130 | AGDLGPREQGR | 0.171 ± 1.2
131 | IGTLFTSNSYFWYLVVG | 2.51 ± 0.13
132 | GLSTMQCVNICFWSYVTW | 1.37 ± 0.26
133 | IGMLGLCGRIPMQAEGGSFR | 0.712 ± 0.52
134 | SCMTLLRFKRMEDLK | 2.45 ± 0.19
135 | MFDTRDRMAALTFVKRMWCK | inactive
136 | YLIYVMPADVMAYWYCFT | -0.379 ± 0.61
137 | CDKTYPANSLCLKDFGQLEG | -0.019 ± 0.64
138 | VRRGTVFAVGTCYIGRWFAV | 1.21 ± 0.97
139 | LLMNQV | 0.715 ± 0.5
140 | FGLKYRSDGVPCPDYLARKY | 0.702 ± 0.51
141 | RASSFAEIPVVSCDGGLVKW | -0.129 ± 0.41
142 | GNLLRTSIDRLLYSWSTIVV | -0.187 ± 0.46
143 | FMCVGSYDPYPWP | 0.659 ± 0.51
144 | QRILTSYGRDMLTSLLRSMP | 1.01 ± 0.58
145 | HILSHFVSCSRYL | -0.09 ± 1.4
146 | RLRWI | -0.057 ± 0.23
147 | SRRCLLKNISSPCF | -1.82 ± 0.87
148 | MFNKVSLSVWASFVWKIIIH | -0.654 ± 0.83
149 | LLQSGGLVIRVHCSMFTVGA | -0.889 ± 0.78
150 | PEAGGLHARYVYFVWNSAPC | 2.69 ± 0.28

Row | Substance | amyloid nucleation score
151 | YWGARNCLLYWWYGLTTEGS | 0.028 ± 0.44
152 | NFKVQREKGF | inactive
153 | LHIVMLVLMASMEQTVTS | -1.11 ± 2.4
154 | LVILRGLGPDSCYYC | -0.248 ± 0.86
155 | HNMHFSPWIKCNSVYEFSGR | 1.56 ± 0.73
156 | CMRMRMFSKVVGSLWWESGY | 0.054 ± 0.39
157 | VRYMWFAAGTREVTWSAFFM | -0.014 ± 0.32
158 | CQIPVFENYFLHLGWSYAPL | 0.224 ± 1.4
159 | LLFRNYHMGDLEHLFIFYWY | 0.475 ± 0.56
160 | KMLVSDTNGESSPLL | 0.124 ± 0.39
161 | SGMGMSPLMMIWCRSSNRDL | inactive
162 | CHYMSHSSWHSWTNRVMRDM | 0.531 ± 0.29
163 | RLCFRASRETFLCNRFNY | inactive
164 | FAQFSAWRTTNGRYKHHFTL | -0.256 ± 0.52
165 | SVRANIA | 1.34 ± 0.38
166 | TVSMSMAYHVK | 2.27 ± 0.25
167 | NVCLLGRLRFYVVLTGIRDL | -0.34 ± 0.74
168 | SYNRIILTFWSFLL | 1.13 ± 0.35
169 | EYLSMNRLRERSYYLGNRTF | 0.077 ± 0.69
170 | PVMSRPAARMMGDSCHWSNR | -0.585 ± 0.8
171 | SLKVTAPTQMGQCVVGGVYH | -0.279 ± 0.88
172 | DHLVEQYDRGDAAFFRLVFV | inactive
173 | LESFWGSPA | 0.445 ± 1.2
